{"source": "patent US20090017041A1", "key": {"[1]": {"target": "oligomer-enriched preparation of the Aβ1-42 peptide (Example 16)", "sequence (peptide, as listed by the source)": "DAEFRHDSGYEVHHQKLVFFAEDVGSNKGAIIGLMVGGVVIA", "assay": "ELISA, fraction coated at 2.2 µM; assay 2; antibody dilution 1:16 (start 0.5 µg/ml)"}, "[2]": {"target": "monomer-enriched preparation of the Aβ1-42 peptide (Example 16)", "sequence (peptide, as listed by the source)": "as above", "assay": "ELISA, fraction coated at 2.2 µM; assay 2; antibody dilution 1:16 (start 0.5 µg/ml)"}, "[3]": {"target": "oligomer-enriched preparation of the Aβ1-42 peptide (Example 16)", "assay": "ELISA, fraction coated at 2.2 µM; assay 1; antibody dilution 1:8 (start 0.5 µg/ml)"}, "[4]": {"target": "monomer-enriched preparation of the Aβ1-42 peptide (Example 16)", "assay": "ELISA, fraction coated at 2.2 µM; assay 1; antibody dilution 1:8 (start 0.5 µg/ml)"}, "[5]": {"target": "oligomer-enriched preparation of the Aβ1-42 peptide (Example 16)", "assay": "ELISA, fraction coated at 2.2 µM; assay 2; antibody dilution 1:2 (start 0.5 µg/ml)"}, "[6]": {"target": "monomer-enriched preparation of the Aβ1-42 peptide (Example 16)", "assay": "ELISA, fraction coated at 2.2 µM; assay 2; antibody dilution 1:2 (start 0.5 µg/ml)"}, "[7]": {"target": "oligomer-enriched preparation of the Aβ1-42 peptide (Example 16)", "assay": "ELISA, fraction coated at 2.2 µM; assay 2; antibody dilution 1:4 (start 0.5 µg/ml)"}, "[8]": {"target": "monomer-enriched preparation of the Aβ1-42 peptide (Example 16)", "assay": "ELISA, fraction coated at 2.2 µM; assay 2; antibody dilution 1:4 (start 0.5 µg/ml)"}, "[9]": {"target": "oligomer-enriched preparation of the Aβ1-42 peptide (Example 16)", "assay": "ELISA, fraction coated at 2.2 µM; antibody dilution 1:32 (start 0.5 µg/ml)"}, "[10]": {"target": "monomer-enriched preparation of the Aβ1-42 peptide (Example 16)", "assay": "ELISA, fraction coated at 2.2 µM; antibody dilution 1:32 (start 0.5 µg/ml)"}, "[11]": {"target": "high molecular weight (HMW) proto-fibrillar (PF) oligomer enriched preparation of the Aβ1-42 peptide (Example 15) (human)", "sequence (peptide, as listed by the source)": "as above", "assay": "ELISA, fraction coated at 2 µM; antibody 0.25 µg/ml"}, "[12]": {"target": "low molecular weight (LMW) monomeric preparation of the Aβ1-42 peptide (Example 15) (human)", "sequence (peptide, as listed by the source)": "as above", "assay": "ELISA, fraction coated at 2 µM; antibody 0.25 µg/ml"}, "[13]": {"target": "oligomer-enriched preparation of the Aβ1-42 peptide (Example 16)", "assay": "ELISA, fraction coated at 2.2 µM; assay 3; antibody dilution 1:16 (start 0.5 µg/ml)"}, "[14]": {"target": "monomer-enriched preparation of the Aβ1-42 peptide (Example 16)", "assay": "ELISA, fraction coated at 2.2 µM; assay 3; antibody dilution 1:16 (start 0.5 µg/ml)"}, "[15]": {"target": "oligomer-enriched preparation of the Aβ1-42 peptide (Example 16)", "assay": "ELISA, fraction coated at 2.2 µM; assay 1; antibody dilution 1:64 (start 0.5 µg/ml)"}, "[16]": {"target": "monomer-enriched preparation of the Aβ1-42 peptide (Example 16)", "assay": "ELISA, fraction coated at 2.2 µM; assay 1; antibody dilution 1:64 (start 0.5 µg/ml)"}, "[17]": {"target": "high molecular weight (HMW) proto-fibrillar (PF) oligomer enriched preparation of the Aβ1-42 peptide (Example 15) (human)", "assay": "ELISA, fraction coated at 2 µM; antibody 1 µg/ml"}, "[18]": {"target": "low molecular weight (LMW) monomeric preparation of the Aβ1-42 peptide (Example 15) (human)", "assay": "ELISA, fraction coated at 2 µM; antibody 1 µg/ml"}, "[19]": {"target": "oligomer-enriched preparation of the Aβ1-42 peptide (Example 16)", "assay": "ELISA, fraction coated at 2.2 µM; assay 1; antibody dilution 1:4 (start 0.5 µg/ml)"}, "[20]": {"target": "high molecular weight (HMW) proto-fibrillar (PF) oligomer enriched preparation of the Aβ1-42 peptide (Example 15) (human)", "assay": "ELISA, fraction coated at 2 µM; antibody 0.5 µg/ml"}, "[21]": {"target": "low molecular weight (LMW) monomeric preparation of the Aβ1-42 peptide (Example 15) (human)", "assay": "ELISA, fraction coated at 2 µM; antibody 0.5 µg/ml"}, "[22]": {"target": "high molecular weight (HMW) proto-fibrillar (PF) oligomer enriched preparation of the Aβ1-42 peptide (Example 15) (human)", "assay": "ELISA, fraction coated at 2 µM; antibody 0.0625 µg/ml"}, "[23]": {"target": "low molecular weight (LMW) monomeric preparation of the Aβ1-42 peptide (Example 15) (human)", "assay": "ELISA, fraction coated at 2 µM; antibody 0.0625 µg/ml"}, "[24]": {"target": "monomer-enriched preparation of the Aβ1-42 peptide (Example 16)", "assay": "ELISA, fraction coated at 2.2 µM; antibody dilution 1:2 (start 0.5 µg/ml)"}, "[25]": {"target": "oligomer-enriched preparation of the Aβ1-42 peptide (Example 16)", "assay": "ELISA, fraction coated at 2.2 µM; antibody dilution 1:128 (start 0.5 µg/ml)"}, "[26]": {"target": "monomer-enriched preparation of the Aβ1-42 peptide (Example 16)", "assay": "ELISA, fraction coated at 2.2 µM; antibody dilution 1:128 (start 0.5 µg/ml)"}, "[27]": {"target": "oligomer-enriched preparation of the Aβ1-42 peptide (Example 16)", "assay": "ELISA, fraction coated at 2.2 µM; assay 1; antibody dilution 1:2 (start 0.5 µg/ml)"}, "[28]": {"target": "monomer-enriched preparation of the Aβ1-42 peptide (Example 16)", "assay": "ELISA, fraction coated at 2.2 µM; assay 1; antibody dilution 1:2 (start 0.5 µg/ml)"}, "[29]": {"target": "oligomer-enriched preparation of the Aβ1-42 peptide (Example 16)", "assay": "ELISA, fraction coated at 2.2 µM; assay 1; antibody dilution 1:1 (start 0.5 µg/ml)"}, "[30]": {"target": "monomer-enriched preparation of the Aβ1-42 peptide (Example 16)", "assay": "ELISA, fraction coated at 2.2 µM; assay 1; antibody dilution 1:1 (start 0.5 µg/ml)"}, "[31]": {"target": "oligomer-enriched preparation of the Aβ1-42 peptide (Example 16)", "assay": "ELISA, fraction coated at 2.2 µM; assay 3; antibody dilution 1:32 (start 0.5 µg/ml)"}, "[32]": {"target": "monomer-enriched preparation of the Aβ1-42 peptide (Example 16)", "assay": "ELISA, fraction coated at 2.2 µM; assay 3; antibody dilution 1:32 (start 0.5 µg/ml)"}, "[33]": {"target": "oligomer-enriched preparation of the Aβ1-42 peptide (Example 16)", "assay": "ELISA, fraction coated at 2.2 µM; antibody dilution 1:64 (start 0.5 µg/ml)"}}}
{"substance": "6E10 control antibody", "values": [{"measurement": "O.D. (405 nm)", "setting": "[1]", "value": 1.92, "unit": "O.D."}, {"measurement": "O.D. (405 nm)", "setting": "[2]", "value": 1.94, "unit": "O.D."}, {"measurement": "O.D. (405 nm)", "setting": "[3]", "value": 2.73, "unit": "O.D."}, {"measurement": "O.D. (405 nm)", "setting": "[4]", "value": 2.67, "unit": "O.D."}, {"measurement": "O.D. (405 nm)", "setting": "[5]", "value": 3.55, "unit": "O.D."}, {"measurement": "O.D. (405 nm)", "setting": "[6]", "value": 3.48, "unit": "O.D."}, {"measurement": "O.D. (405 nm)", "setting": "[7]", "value": 3.37, "unit": "O.D."}, {"measurement": "O.D. (405 nm)", "setting": "[8]", "value": 3.29, "unit": "O.D."}, {"measurement": "O.D. (405 nm), mean of 3 assays", "setting": "[9]", "value": 1.32, "unit": "O.D."}, {"measurement": "O.D. (405 nm), mean of 3 assays", "setting": "[10]", "value": 1.36, "unit": "O.D."}, {"measurement": "O.D. (405 nm)", "setting": "[11]", "value": 1.44, "unit": "O.D."}, {"measurement": "O.D. (405 nm)", "setting": "[12]", "value": 1.56, "unit": "O.D."}, {"measurement": "O.D. (405 nm)", "setting": "[13]", "value": 2.07, "unit": "O.D."}, {"measurement": "O.D. (405 nm)", "setting": "[14]", "value": 2.23, "unit": "O.D."}, {"measurement": "O.D. (405 nm)", "setting": "[15]", "value": 0.93, "unit": "O.D."}, {"measurement": "O.D. (405 nm)", "setting": "[16]", "value": 0.81, "unit": "O.D."}, {"measurement": "O.D. (405 nm)", "setting": "[17]", "value": 2.55, "unit": "O.D."}, {"measurement": "O.D. (405 nm)", "setting": "[18]", "value": 2.68, "unit": "O.D."}, {"measurement": "O.D. (405 nm)", "setting": "[19]", "value": 3.1, "unit": "O.D."}, {"measurement": "O.D. (405 nm)", "setting": "[20]", "value": 2, "unit": "O.D."}, {"measurement": "O.D. (405 nm)", "setting": "[21]", "value": 2.13, "unit": "O.D."}, {"measurement": "O.D. (405 nm)", "setting": "[22]", "value": 0.544, "unit": "O.D."}, {"measurement": "O.D. (405 nm)", "setting": "[23]", "value": 0.574, "unit": "O.D."}, {"measurement": "O.D. (405 nm), mean of 3 assays", "setting": "[24]", "value": 3.59, "unit": "O.D."}, {"measurement": "O.D. (405 nm), mean of 3 assays", "setting": "[25]", "value": 0.63, "unit": "O.D."}, {"measurement": "O.D. (405 nm), mean of 3 assays", "setting": "[26]", "value": 0.75, "unit": "O.D."}, {"measurement": "O.D. (405 nm)", "setting": "[27]", "value": 3.39, "unit": "O.D."}, {"measurement": "O.D. (405 nm)", "setting": "[28]", "value": 3.3, "unit": "O.D."}, {"measurement": "O.D. (405 nm)", "setting": "[29]", "value": 3.36, "unit": "O.D."}, {"measurement": "O.D. (405 nm)", "setting": "[30]", "value": 3.67, "unit": "O.D."}, {"measurement": "O.D. (405 nm)", "setting": "[31]", "value": 1.4, "unit": "O.D."}, {"measurement": "O.D. (405 nm)", "setting": "[32]", "value": 1.54, "unit": "O.D."}, {"measurement": "O.D. (405 nm), mean of 3 assays", "setting": "[33]", "value": 0.92, "unit": "O.D."}]}
